Experiment [1] concerns the target T1, At14-3-3 λ^N233A (Arabidopsis thaliana, UniProt P48349 1-248, N233A).
T1 sequence: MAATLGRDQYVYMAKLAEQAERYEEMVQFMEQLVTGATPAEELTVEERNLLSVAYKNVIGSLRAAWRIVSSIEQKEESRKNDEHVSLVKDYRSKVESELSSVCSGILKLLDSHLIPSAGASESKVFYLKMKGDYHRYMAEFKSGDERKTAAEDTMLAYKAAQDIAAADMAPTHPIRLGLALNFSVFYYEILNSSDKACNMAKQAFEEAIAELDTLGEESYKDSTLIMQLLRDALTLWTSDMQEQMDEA
The experiment is described as follows: ITC.

The target of experiment [2] is T2, Arabidopsis 14-3-3 isoform kappa (At14-3-3-κ^1−248) (Arabidopsis thaliana, UniProt P48348 1-248).
T2 chain: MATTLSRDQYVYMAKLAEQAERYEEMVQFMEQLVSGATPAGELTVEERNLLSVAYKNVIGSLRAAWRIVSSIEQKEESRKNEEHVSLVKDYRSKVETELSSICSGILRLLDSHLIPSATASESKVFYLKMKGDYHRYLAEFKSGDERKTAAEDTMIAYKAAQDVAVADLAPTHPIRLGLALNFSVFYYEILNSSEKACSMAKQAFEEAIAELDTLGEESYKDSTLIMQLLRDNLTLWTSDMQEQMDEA
As to the kind of experiment: ITC. (ITC needs no label: the signal is the heat of the interaction.)

Experiment [3] concerns the target T3, biotinylated 14-3-3 ω dimer (Arabidopsis thaliana, UniProt Q01525 1-259, biotin (EZ-Link NHS-Biotin, equimolar amounts of protein and biotin; sites not stated)).
T3 chain: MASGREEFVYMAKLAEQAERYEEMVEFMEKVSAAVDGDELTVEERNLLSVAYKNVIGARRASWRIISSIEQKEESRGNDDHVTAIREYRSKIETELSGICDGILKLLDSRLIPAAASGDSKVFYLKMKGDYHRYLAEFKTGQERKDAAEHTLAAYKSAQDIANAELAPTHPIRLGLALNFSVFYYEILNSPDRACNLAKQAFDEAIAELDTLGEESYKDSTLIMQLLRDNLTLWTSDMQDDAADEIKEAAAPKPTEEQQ

Experiment [4] has as its target T4, Arabidopsis 14-3-3 lambda (At14-3-3-λ^1−248) (Arabidopsis thaliana, UniProt P48349 1-248).
T4 chain: T1 sequence with A233N
The experiment is described as follows: ITC.

Experiment [5] has as its target T5, Arabidopsis 14-3-3 omega, full length (At14-3-3-ω^1−259) (Arabidopsis thaliana, UniProt Q01525 1-259).
T5 chain: T3 chain
The experiment is described as follows: ITC.

The target in experiment [6] is T2, Arabidopsis 14-3-3 isoform kappa …. As to the kind of experiment: ITC.

By Kd is commonly meant the constant that tells how readily two partners part at equilibrium. The low end stands for tighter binding, the high end for weaker binding. Broadly, the koff is a measure of how fast the partners let go of each other. Read a high koff as fast dissociation.

Numbering of substitutions follows the chain as printed. Where “and” joins values, the source holds several entries; their conditions need not be identical. Equal entries are not always repeated. Where two headings read alike, the source gives them in different places. Square brackets hold non-standard residues; d marks the D form. Ends that are not written are not given here. pT = C[C@@H](OP(=O)(O)O)[C@H](N)C(=O)O; pS = N[C@@H](COP(=O)(O)O)C(=O)O

In the case of RISN[pS]AP [pBZR1^169−175 peptide], the Kd in experiment [1] is 5 µM; in experiment [2], 0.38 µM and 0.4 µM; in experiment [4], 0.81 µM; in experiment [5], 0.88 µM; in experiment [6] it was 0.57 µM. Also, the koff in experiment [3] was found to be 0.87 s⁻¹.
RKL[pT]FA [pBRI1^869−874 peptide]: the dissociation constant Kd in experiment [1] is 40 µM; in experiment [2], 16.7 µM and 17 µM.
On to RGELF[pS]AP [pBKI1^265−272 peptide], for which the Kd in experiment [1] worked out at 3.7 µM; in experiment [4], 5.4 µM; in experiment [5], 6.4 µM; in experiment [6], 14.4 µM.
As to RISN[pS]CPV[pT]PPVSSPT [pBZR1^169−184 peptide], the Kd in experiment [2] is 3.1 µM and 3 µM.
